The values below come from patent publication US20230114801A1 (SYSTIMMUNE, published 2023).

What all share (test): BLI (Octet), binder on AHC sensor, 100 nM human antigen, 1:1 fit
Background: In BLI a coated tip is dipped into the sample, and binding shifts an interference pattern.

Test [1] addresses T1, human PD-L1 (human, UniProt Q9NZQ7 19-238).
T1 construct: Soluble antigen in Octet; bought; also called human PD-L1 (Acro PD1-H5229)

For test [2], the target named is T2, human 4-1BB (human, UniProt Q07011 24-186, limits assumed).
T2 construct: Soluble antigen in Octet; construct not described

Test [3] deals with T3, human CD3 (human, UniProt P07766 23-126; P04234 22-105).
T3 construct: also called His-tagged human CD3; human CD3 (Acro CDD-H52W1)

Test [4] has as its target T4, human EGFR (human, UniProt P00533 25-645, limits assumed).
T4 construct: Soluble antigen in Octet; construct not described

B1: SI-75P9 (other)
chain 1: EIVLTQSPSTLSVSPGERATFSCRASQSIGTNIHWYQQKPGKPPRLLIKYASESISGIPDRFSGSGSGTEFTLTISSVQSEDFAVYYCQQNNNWPTTFGPGTKLTVLGGGGSGGGGSGGGGSGGGGSQVQLQQSGPGLVKPSETLSITCTVSGFSLTNYGVHWIRQAPGKGLEWLGVIWSGGNTDYNTPFTSRFTITKDNSKNQVYFKLRSVRADDTAIYYCARALTYYDYEFAYWGQGTLVTVSSGGGGSGGGGSQVQLQESGGGLVKPGGSLRLSCAASGFTFSSYWMSWVRQAPGKGLEWVANINRDGSASYYVDSVKGRFTISRDDAKNSLYLQMNSLRAEDTAVYYCARDRGVGYFDLWGRGTLVTVSSASTKGPSVFPLAPSSKSTSGGTAALGCLVKDYFPEPVTVSWNSGALTSGVHTFPAVLQSSGLYSLSSVVTVPSSSLGTQTYICNVNHKPSNTKVDKRVEPKSCDKTHTCPPCPAPEAAGGPSVFLFPPKPKDTLMISRTPEVTCVVVDVSHEDPEVKFNWYVDGVEVHNAKTKPREEQYNSTYRVVSVLTVLHQDWLNGKEYKCAVSNKALPAPIEKTISKAKGQPREPQVYTLPPSRDELTKNQVSLSCAVKGFYPSDIAVEWESNGQPENNYKTTPPVLDSDGSFFLVSKLTVDKSRWQQGNVFSCSVMHEALHNHYTQKSLSLSPGGGGGSGGGGSDVVMTQSPSSVSASVGDRVTITCQASQNIRTYLSWYQQKPGKAPKLLIYAAANLASGVPSRFSGSGSGTDFTLTISDLEPGDAATYYCQSTYLGTDYVGGAFGGGTKLTVLGGGGSGGGGSGGGGSGGGGSEVQLVESGGGLVQPGGSLRLSCTASGFTISSYHMQWVRQAPGKGLEYIGTISSGGNVYYASSARGRFTISRPSSKNTVDLQMNSLRAEDTAVYYCARDSGYSDPMWGQGTLVTVSS
chain 2: DVVMTQSPSTLSASVGDRVTINCQASESISSWLAWYQQKPGKAPKLLIYEASKLASGVPSRFSGSGSGTEFTLTISSLQPDDFATYYCQGYFYFISRTYVNSFGGGTKVEIKGGGGSGGGGSGGGGSGGGGSEVQLVESGGGLVQPGGSLRLSCAASGFTISTNAMSWVRQAPGKGLEWIGVITGRDITYYASWAKGRFTISRDNSKNTLYLQMNSLRAEDTAVYYCARDGGSSAITSNNIWGQGTLVTVSSGGGGSGGGGSQSALTQPASVSGSPGQSITISCTGTSSDVGGYNFVSWYQQHPGKAPKLMIYDVSDRPSGVSDRFSGSKSGNTASLIISGLQADDEADYYCSSYGSSSTHVIFGGGTKVTVLRTPKANPTVTLFPPSSEELQANKATLVCLISDFYPGAVTVAWKADGSPVKAGVETTKPSKQSNNKYAASSYLSLTPEQWKSHRSYSCQVTHEGSTVEKTVAPTECSGGDKTHTCPPCPAPEAAGGPSVFLFPPKPKDTLMISRTPEVTCVVVDVSHEDPEVKFNWYVDGVEVHNAKTKPREEQYNSTYRVVSVLTVLHQDWLNGKEYKCAVSNKALPAPIEKTISKAKGQPREPQVYTLPPSRDELTKNQVSLWCLVKGFYPSDIAVEWESNGQPENNYKTTPPVLDSDGSFFLYSKLTVDKSRWQQGNVFSCSVMHEALHNRFTQKSLSLSPGGGGGSGGGGSDIQMTQSPSTLSASVGDRVTITCQASQSISSHLNWYQQKPGKAPKLLIYKASTLASGVPSRFSGSGSGTEFTLTISSLQPDDFATYYCQQGYSWGNVDNVFGGGTKVTVLGGGGSGGGGSGGGGSGGGGSEVQLLESGGGLVQPGGSLSLSCAASGFSFSSGYDMCWVRQAPGKGLEWIACIAAGSAGITYDANWAKGRFTISRDNSKNTLYLQMNSLRAEDTAVYYCARSAFSFDYAMDLWGQGTLVTVSS
notes: penta-miniGNC; D1 αEGFR, D2 αCD3, D3 αHER3 (Fab), D4 α4-1BB, D5 αPD-L1
Broadly, the Kd is a measure of binding affinity in units of concentration. For the molecule B1, the Kd was determined as 2.7 nM in test [1], 21.2 nM in test [2], 20.1 nM in test [3] and 11.1 nM in test [4].

B2: SI-75P3 (other)
chain 1: EIVLTQSPSTLSVSPGERATFSCRASQSIGTNIHWYQQKPGKPPRLLIKYASESISGIPDRFSGSGSGTEFTLTISSVQSEDFAVYYCQQNNNWPTTFGPGTKLTVLGGGGSGGGGSGGGGSGGGGSQVQLQQSGPGLVKPSETLSITCTVSGFSLTNYGVHWIRQAPGKGLEWLGVIWSGGNTDYNTPFTSRFTITKDNSKNQVYFKLRSVRADDTAIYYCARALTYYDYEFAYWGQGTLVTVSSGGGGSGGGGSEVQLVESGGGLVQPGGSLRLSCAASGFTISTNAMSWVRQAPGKGLEWIGVITGRDITYYASWAKGRFTISRDNSKNTLYLQMNSLRAEDTAVYYCARDGGSSAITSNNIWGQGTLVTVSSASTKGPSVFPLAPSSKSTSGGTAALGCLVKDYFPEPVTVSWNSGALTSGVHTFPAVLQSSGLYSLSSVVTVPSSSLGTQTYICNVNHKPSNTKVDKRVEPKSCDKTHTCPPCPAPEAAGGPSVFLFPPKPKDTLMISRTPEVTCVVVDVSHEDPEVKFNWYVDGVEVHNAKTKPREEQYNSTYRVVSVLTVLHQDWLNGKEYKCAVSNKALPAPIEKTISKAKGQPREPQVYTLPPSRDELTKNQVSLSCAVKGFYPSDIAVEWESNGQPENNYKTTPPVLDSDGSFFLVSKLTVDKSRWQQGNVFSCSVMHEALHNHYTQKSLSLSPGGGGGSGGGGSDVVMTQSPSSVSASVGDRVTITCQASQNIRTYLSWYQQKPGKAPKLLIYAAANLASGVPSRFSGSGSGTDFTLTISDLEPGDAATYYCQSTYLGTDYVGGAFGGGTKLTVLGGGGSGGGGSGGGGSGGGGSEVQLVESGGGLVQPGGSLRLSCTASGFTISSYHMQWVRQAPGKGLEYIGTISSGGNVYYASSARGRFTISRPSSKNTVDLQMNSLRAEDTAVYYCARDSGYSDPMWGQGTLVTVSS
chain 2: QSALTQPASVSGSPGQSITISCTGTSSDVGGYNFVSWYQQHPGKAPKLMIYDVSDRPSGVSDRFSGSKSGNTASLIISGLQADDEADYYCSSYGSSSTHVIFGGGTKVTVLGGGGSGGGGSGGGGSGGGGSQVQLQESGGGLVKPGGSLSLSCAASGFTFSSYWMSWVRQAPGKGLEWVANINRDGSASYYVDSVKGRFTISRDDAKNSLYLQMNSLRAEDTAVYYCARDRGVGYFDLWGRGTLVTVSSGGGGSGGGGSDVVMTQSPSTLSASVGDRVTINCQASESISSWLAWYQQKPGKAPKLLIYEASKLASGVPSRFSGSGSGTEFTLTISSLQPDDFATYYCQGYFYFISRTYVNSFGGGTKVEIKRTVAAPSVFIFPPSDEQLKSGTASVVCLLNNFYPREAKVQWKVDNALQSGNSQESVTEQDSKDSTYSLSSTLTLSKADYEKHKVYACEVTHQGLSSPVTKSFNRGECGGDKTHTCPPCPAPEAAGGPSVFLFPPKPKDTLMISRTPEVTCVVVDVSHEDPEVKFNWYVDGVEVHNAKTKPREEQYNSTYRVVSVLTVLHQDWLNGKEYKCAVSNKALPAPIEKTISKAKGQPREPQVYTLPPSRDELTKNQVSLWCLVKGFYPSDIAVEWESNGQPENNYKTTPPVLDSDGSFFLYSKLTVDKSRWQQGNVFSCSVMHEALHNRFTQKSLSLSPGGGGGSGGGGSDIQMTQSPSTLSASVGDRVTITCQASQSISSHLNWYQQKPGKAPKLLIYKASTLASGVPSRFSGSGSGTEFTLTISSLQPDDFATYYCQQGYSWGNVDNVFGGGTKVTVLGGGGSGGGGSGGGGSGGGGSEVQLLESGGGLVQPGGSLSLSCAASGFSFSSGYDMCWVRQAPGKGLEWIACIAAGSAGITYDANWAKGRFTISRDNSKNTLYLQMNSLRAEDTAVYYCARSAFSFDYAMDLWGQGTLVTVSS
notes: penta-miniGNC; D1 αEGFR, D2 αHER3, D3 αCD3 (Fab), D4 α4-1BB, D5 αPD-L1
For B2, the Kd in test [1] amounted to 1 nM; in test [2] it was 7.51 nM; in test [3] it was 17.4 nM; in test [4], 8.91 nM.
